Measured values published in publication PMC2542475 (The Journal of Cell Biology, 2008).

Target: T1, recombinant full-length Vps41 (S. cerevisiae, UniProt P38959 1-992)
T1 sequence: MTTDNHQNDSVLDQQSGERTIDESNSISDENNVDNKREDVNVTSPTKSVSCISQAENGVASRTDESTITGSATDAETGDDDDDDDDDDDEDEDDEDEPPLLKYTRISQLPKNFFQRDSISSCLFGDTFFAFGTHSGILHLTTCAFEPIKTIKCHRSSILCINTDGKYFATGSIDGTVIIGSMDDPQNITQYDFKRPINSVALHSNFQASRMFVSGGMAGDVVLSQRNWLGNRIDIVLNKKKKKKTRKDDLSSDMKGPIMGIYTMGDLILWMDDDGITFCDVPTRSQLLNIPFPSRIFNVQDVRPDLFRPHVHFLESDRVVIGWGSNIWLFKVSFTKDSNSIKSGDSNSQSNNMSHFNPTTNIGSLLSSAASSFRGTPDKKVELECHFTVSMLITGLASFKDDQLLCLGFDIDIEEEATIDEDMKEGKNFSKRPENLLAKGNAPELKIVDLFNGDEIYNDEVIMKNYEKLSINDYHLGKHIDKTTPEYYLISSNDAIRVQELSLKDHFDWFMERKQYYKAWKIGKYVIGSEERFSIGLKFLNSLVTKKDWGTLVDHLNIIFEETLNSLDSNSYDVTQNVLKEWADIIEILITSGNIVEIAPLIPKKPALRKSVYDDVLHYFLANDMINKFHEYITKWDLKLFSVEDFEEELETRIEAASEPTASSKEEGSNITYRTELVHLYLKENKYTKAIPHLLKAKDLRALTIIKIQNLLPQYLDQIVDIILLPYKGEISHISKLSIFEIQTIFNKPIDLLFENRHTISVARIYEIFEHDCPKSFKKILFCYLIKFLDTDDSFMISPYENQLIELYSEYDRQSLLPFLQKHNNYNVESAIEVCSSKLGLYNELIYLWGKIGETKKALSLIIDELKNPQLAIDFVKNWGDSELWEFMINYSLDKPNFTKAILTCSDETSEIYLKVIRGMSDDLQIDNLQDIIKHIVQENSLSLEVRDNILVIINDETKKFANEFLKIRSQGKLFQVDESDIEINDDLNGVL
Assay: pull-down

B1: GST-Ypt7 (natural protein)
chain: MSSRKKNILKVIILGDSGVGKTSLMHRYVNDKYSQQYKATIGADFLTKEVTVDGDKVATMQVWDTAGQERFQSLGVAFYRGADCCVLVYDVTNASSFENIKSWRDEFLVHANVNSPETFPFVILGNKIDAEESKKIVSEKSAQELAKSLGDIPLFLTSAKNAINVDTAFEEIARSALQQNQADTEAFEDDYNDAINIRLDGENNSCSC
- binding result: binds
